Measured values reported in article PMC4899126.

Assays:
[1] = target: E.r. RT domain (group II intron maturase from Eubacterium rectale M104/1, residues 1-293) (Eubacterium rectale M104/1); assay: AUC
[2] = target: E.r. RT domain (group II intron maturase from Eubacterium rectale M104/1, residues 1-293) (Eubacterium rectale M104/1); assay: AUC; remark: listed apart in the source
[3] = target: E.r. RT domain (group II intron maturase from Eubacterium rectale M104/1, residues 1-293) (Eubacterium rectale M104/1); assay: SEC-MALS
[4] = target: E.r. RT domain (group II intron maturase from Eubacterium rectale M104/1, residues 1-293) (Eubacterium rectale M104/1); assay: SEC-MALS; remark: listed apart in the source

Measured: stoichiometry N

E.r. RT domain (group II intron maturase from Eubacterium rectale M104/1, residues 1-293) (domain or fragment)
2: all assays above
